Measured values: US20230044380A1

Molecular target: T1, CD70 (UniProt P32970)
T1 sequence (looked up): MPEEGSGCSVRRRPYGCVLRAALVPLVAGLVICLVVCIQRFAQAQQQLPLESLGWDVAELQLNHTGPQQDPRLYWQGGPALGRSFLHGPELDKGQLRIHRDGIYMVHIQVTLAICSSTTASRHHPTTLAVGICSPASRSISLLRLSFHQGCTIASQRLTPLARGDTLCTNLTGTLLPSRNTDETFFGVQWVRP
Experiment: cell-based or functional assay

B1: CD27.Z (CD70 CAR) (protein)
chain: ATPAPKSCPERHYWAQGKLCCQMCEPGTFLVKDCDQHRKAAQCDPCIPGVSFSPDHHTRPHCESCRHCNSGLLVRNCTITANAECACRNGWQCRDKECTECDPLPNPSLTARSSQALSPHPQPTHLPYVSEMLEARTAGHMQTLADFRQLPARTLSTHWPPQRSLCSSDFIRILVIFSGMFLVFTLAGALFLHQRRKYRSNKGESPVEPAEPCRYSCPREEEGSTIPIQEDYRKPEPACSPRVKFSRSADAPAYQQGQNQLYNELNLGRREEYDVLDKRRGRDPEMGGKPRRKNPQEGLYNELQKDKMAEAYSEIGMKGERRRGKGHDGLYQGLSTATKDTYDALHMQALPPR
For B1, the percentage of CD107a positive T cells in CD8 positive T cells; CD27 CAR + LACO (A40C.28) T cells stimulated by 786-O (CD70 + + +) was 27.3%, the percentage of CD107a positive T cells in CD8 positive T cells; CD27 CAR + LACO (A40C.28) T cells stimulated by A498-CBG (CD70 + + +) was 22.7% and the percentage of CD107a positive T cells in CD8 positive T cells; CD27 CAR + LACO (A40C.28) T cells stimulated by A549-CBG (CD70 +) was 3.3%. For the same binder, the percentage of CD107a positive T cells in CD8 positive T cells; CD27 CAR + LACO (A40C.28) T cells stimulated by HS766T-CBG (CD70 +) was 9.7%, the percentage of CD107a positive T cells in CD8 positive T cells; CD27 CAR + LACO (A40C.28) T cells stimulated by Jeko-1-CBG (CD70 + + +) was 34.4% and the percentage of CD107a positive T cells in CD8 positive T cells; CD27 CAR + LACO (A40C.28) T cells stimulated by OVCAR3 (CD70 +) was 6.9%. The percentage of CD107a positive T cells in CD8 positive T cells; CD27 CAR + LACO (A40C.28) T cells stimulated by PC3-CBG (CD70 + +) was 15.9%, the percentage of CD107a positive T cells in CD8 positive T cells; CD27 CAR + LACO (A40C.28) T cells stimulated by Raji-CBG (CD70 + + +) was 30.3% and the percentage of CD107a positive T cells in CD8 positive T cells; CD27 CAR + LACO (A40C.28) T cells stimulated by SKOV3-CBG (CD70 +) was 3.3%. The percentage of CD107a positive T cells in CD8 positive T cells; CD27 CAR + LACO (A40C.28) T cells stimulated by THP1 (CD70 + +) was 22.2%, the percentage of CD107a positive T cells in CD8 positive T cells; CD27 CAR + LACO (A40C.28) T cells stimulated by U87-CBG (CD70 + + +) was 32% and the percentage of CD107a positive T cells in CD8 positive T cells; CD27 CAR + LACO (A40C.28) T cells stimulated by U937 (CD70 + +) was 9%. It also gave a percentage of CD107a positive T cells in CD8 positive T cells; CD27 CAR T cells stimulated by 786-O (CD70 + + +) of 27.6%, a percentage of CD107a positive T cells in CD8 positive T cells; CD27 CAR T cells stimulated by A498-CBG (CD70 + + +) of 30.8% and a percentage of CD107a positive T cells in CD8 positive T cells; CD27 CAR T cells stimulated by A549-CBG (CD70 +) of 4.4%. It also gave a percentage of CD107a positive T cells in CD8 positive T cells; CD27 CAR T cells stimulated by HS766T-CBG (CD70 +) of 15%, a percentage of CD107a positive T cells in CD8 positive T cells; CD27 CAR T cells stimulated by Jeko-1-CBG (CD70 + + +) of 23.1% and a percentage of CD107a positive T cells in CD8 positive T cells; CD27 CAR T cells stimulated by OVCAR3 (CD70 +) of 8.8%. It also gave a percentage of CD107a positive T cells in CD8 positive T cells; CD27 CAR T cells stimulated by PC3-CBG (CD70 + +) of 16%, a percentage of CD107a positive T cells in CD8 positive T cells; CD27 CAR T cells stimulated by Raji-CBG (CD70 + + +) of 29.9% and a percentage of CD107a positive T cells in CD8 positive T cells; CD27 CAR T cells stimulated by SKOV3-CBG (CD70 +) of 3.2%. For the same binder, the percentage of CD107a positive T cells in CD8 positive T cells; CD27 CAR T cells stimulated by THP1 (CD70 + +) was 20.2%, the percentage of CD107a positive T cells in CD8 positive T cells; CD27 CAR T cells stimulated by U87-CBG (CD70 + + +) was 37.8% and the percentage of CD107a positive T cells in CD8 positive T cells; CD27 CAR T cells stimulated by U937 (CD70 + +) was 7.1%.
